Broadly, the stoichiometry N is the number of molecules, sites or subunits per partner or assembly.

Data on one protein can be found in paper doi:10.1101/2025.02.14.638281 (bioRxiv, 2025).

This series deals with the molecule itself. The series can be described thus: SEC. On the technique in general: SEC sorts molecules by how far they enter the pores of the column.

Where “and” joins values, the source holds several entries; their conditions need not be identical. Equal values may be shown once.

B1: Synechocystis sp. PCC 6803 fructose-1,6-bisphosphatase (FBPase; slr0952) (enzyme, UniProt P74324 1-347, looked up)
chain: MTVSEIHIPNSLLDRDCTTLSRHVLQQLNSFGADAQDLSAIMNRIALAGKLIARRLSRAGLMADVLGFTGETNVQGESVKKMDVFANDVFISVFKQSGLVCRLASEEMEKPYYIPENCPIGRYTLLYDPIDGSSNVDINLNVGSIFAIRQQEGDDLDGSASDLLANGDKQIAAGYILYGPSTILVYSLGSGVHSFILDPSLGEFILAQENIRIPNHGPIYSTNEGNFWQWDEALRDYTRYVHRHEGYTARYSGALVGDIHRILMQGGVFLYPGTEKNPDGKLRLLYETAPLAFLVEQAGGRASDGQKRLLDLIPSKLHQRTPAIIGSAEDVKLVESFISDHKQRQGN
As to B1, the “stoichiometry N” value is 12 and 4.
